According to article PMC9241723:

Biological target: T1, MaNCP1-N (N-terminal C2H2 zinc finger cluster of MaNCP1) (Metarhizium acridum (CQMa102)) (UniProt E9E378)
T1 sequence: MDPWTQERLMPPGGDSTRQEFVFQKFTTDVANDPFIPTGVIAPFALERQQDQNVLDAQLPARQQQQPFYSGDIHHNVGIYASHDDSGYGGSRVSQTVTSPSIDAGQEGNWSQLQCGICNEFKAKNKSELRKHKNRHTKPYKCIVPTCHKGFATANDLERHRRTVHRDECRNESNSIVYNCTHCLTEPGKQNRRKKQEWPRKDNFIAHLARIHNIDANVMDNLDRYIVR
Test: EMSA
Conditions: Chemiluminescent EMSA kit (Beyotime), biotin-labeled probe; buffer, salt, pH and temperature not stated

AAAGATCAATAGGAGCTCAGACGACGAGATCGGATGGTGGGGTTCCGGGCAGGCGCAGGCGCGGCGGAAGTCGGCTAGCAGGAGCAACCCAATTGATAAGAGCTCAAGTG (double strand) [MaNmrA promoter probe]
binding: binds
